B1: CCHC-type zinc finger nucleic acid binding protein (Homo sapiens), P62633 (parent)
chain: MSSNECFKCGRSGHWARECPTGGGRGRGMRSRGRGGFTSDRGFQFVSSSLPDICYRCGESGHLAKDCDLQEDACYNCGRGGHIAKDCKEPKREREQCCYNCGKPGHLARDCDHADEQKCYSCGEFGHIQKDCTKVKCYRCGETGHVAINCSKTSEVNCYRCGESGHLARECTIEATA

Variants of: B1
Conditions: with anm1_rat Prmt1, Q63009
Sequence of anm1_rat Prmt1, Q63009 (Q63009 whole entry, looked up): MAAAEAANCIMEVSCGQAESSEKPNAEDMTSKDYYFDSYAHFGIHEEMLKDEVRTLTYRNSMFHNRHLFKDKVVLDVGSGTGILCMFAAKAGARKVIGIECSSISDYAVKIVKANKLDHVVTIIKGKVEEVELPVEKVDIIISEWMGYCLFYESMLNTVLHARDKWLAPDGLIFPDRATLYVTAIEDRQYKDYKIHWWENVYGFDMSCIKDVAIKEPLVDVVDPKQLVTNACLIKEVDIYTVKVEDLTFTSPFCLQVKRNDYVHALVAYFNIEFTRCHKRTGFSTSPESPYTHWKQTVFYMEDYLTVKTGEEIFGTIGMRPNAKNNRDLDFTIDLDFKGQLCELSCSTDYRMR
For R25A;R27A, the “effect of a mutation on the interaction” value was “decreasing interaction”.

— IntAct's records for PubMed 24726729
